Laboratory results: publication PMC7712654 (2020)

Biological target: T1, CTI2 (Arabidopsis thaliana, UniProt Q9M8T2)
T1 chain: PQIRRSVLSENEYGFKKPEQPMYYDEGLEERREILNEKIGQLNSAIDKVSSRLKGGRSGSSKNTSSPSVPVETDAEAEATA
Test: MST

B1: alphaCT (protein)
chain: INMKKREAVFSDSRKLQGEVDKLKEQILKAKETSTEAEPSSEVLNEMIEKLKSEIDDEYTEAAIAVGLEERLTAMREEFSKASSEEHLMHPVLIEKIEKLKEEFNTRLTDAPNYESLKSKLNMLRDFSRAKAASEATSLKKEINKRFQEAVDRPEIREKVEAIKAEVASSGASSFDELPDALKEKVLKTKGEVEAEMAGVLKSMGLELDAVKQNQKDTAEQIYAANENLQEKLEKLNQEITSKIEEVVRTPEIKSMVELLKVETAKASKTPGVTEAYQKIEALEQQIKQKIAEALNTSGLQEKQDELEKELAAARELAAEESDGSVKEDDDDDEDSSESGKSEMVNPSFA
Question: For B1, which Kd is on record?
Answer: Its Kd is 1.4 µM.
